Measurements: patent US20250090676A1 (SUTRO BIOPHARMA, published 2025)

target: T1, human FOLR1-HIS (human, UniProt P15328 25-233); experiment: SPR (Biacore), antibody captured on anti-Fc, human FOLR1-HIS analyte, 25 C
T1 construct: Analyte of the Biacore assay; also called FolRα-ECD; extracellular domain of FOLR1; not shown: HIS tag
T1 sequence (P15328 25-233 limits assumed): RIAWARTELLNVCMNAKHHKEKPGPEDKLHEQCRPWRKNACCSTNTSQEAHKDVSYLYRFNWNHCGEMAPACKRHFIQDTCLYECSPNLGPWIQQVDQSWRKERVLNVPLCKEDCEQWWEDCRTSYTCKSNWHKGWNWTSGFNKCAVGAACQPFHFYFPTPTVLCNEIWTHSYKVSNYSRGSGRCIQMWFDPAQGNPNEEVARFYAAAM

Binder | Kd [nM] | koff [s⁻¹] | kon [M⁻¹ s⁻¹]
SRP1848-A02 (antibody, V domains shown, IgG with common trastuzumab LC, cell-free expressed, HIS- and FLAG-tagged; also called Antibody 2) VH: EVQLVESGGGLVQPGGSLRLSCAASGFNISGFRIHWVRQAPGKGLEWVAGIYPESGATYYADSVKGRFTISADTSKNTAYLQMNSLRAEDTAVYYCARHLYVWDWVLDHVLDYWGQGTLVTVSS VL: not shown | 16.8 | 0.00882 | 525000
SRP1848-F04 (antibody, V domains shown, IgG with common trastuzumab LC, cell-free expressed, HIS- and FLAG-tagged; also called Antibody 39) VH: EVQLVESGGGLVQPGGSLRLSCAASGFNISNYSIHWVRQAPGKGLEWVGEIYPIDGITDYADSVKGRFTISADTSKNTAYLQMNSLRAEDTAVYYCARGSWFWRSGYGYYLDYWGQGTLVTVSS VL: not shown | 1.32 | 0.00108 | 815000
SRP1848-B06 (antibody, V domains shown, IgG with common trastuzumab LC, cell-free expressed, HIS- and FLAG-tagged; also called Antibody 13) VH: EVQLVESGGGLVQPGGSLRLSCAASGFNISNYYIHWVRQAPGKGLEWVGGITPIDGYTDYADSVKGRFTISADTSKNTAYLQMNSLRAEDTAVYYCARGFWSWPSGYGYYQDYWGQGTLVTVSS VL: not shown | 5.1 | 0.00317 | 620000
SRP1848-C04 (antibody, V domains shown, IgG with common trastuzumab LC, cell-free expressed, HIS- and FLAG-tagged; also called Antibody 20) VH: EVQLVESGGGLVQPGGSLRLSCAASGFNIRHYSIHWVRQAPGKGLEWVGEIYPGPGNTDYADSVKGRFTISADTSKNTAYLQMNSLRAEDTAVYYCARGSLSWRAGYGYYLDYWGQGTLVTVSS VL: not shown | 3.86 | 0.00499 | 1.29e+06
SRP1848-C07 (antibody, V domains shown, IgG with common trastuzumab LC, cell-free expressed, HIS- and FLAG-tagged; also called Antibody 22) VH: EVQLVESGGGLVQPGGSLRLSCAASGFNIRKYSIHWVRQAPGKGLEWVGDIFPIDGITDYADSMKGRFTISADTSKNTAYLQMNSLRAEDTAVYYCARGSWSWPAGYGYYQDYWGQGTLVTVSS VL: not shown | 2.21 | 0.00189 | 856000
SRP1848-C01 (antibody, V domains shown, IgG with common trastuzumab LC, cell-free expressed, HIS- and FLAG-tagged; also called Antibody 18) VH: EVQLVESGGGLVQPGGSLRLSCAASGFNIGNSYIHWVRQAPGKGLEWVGGVTPNDGYTDYADSVKGRFTISADTSKNTTYLQMNSLRAEDTAVYYCARGSWFWRAGYGYYLDYWGQGALVTVSS VL: not shown | 3.05 |  | 
SRP1848-B05 (antibody, V domains shown, IgG with common trastuzumab LC, cell-free expressed, HIS- and FLAG-tagged; also called Antibody 12) VH: EVQLVESGGGLVQPGGSLRLSCAASGFNISNYYIHWVRQAPGKGLEWVGGISPIDGYTDYADSMKGRFTISADTSKNTAYLQMSSLRAEDTAVYYCARGSWFWQSGYGYYLDYWGQGTLVTVSS VL: not shown | 9.07 | 0.00885 | 976000
SRP1848-B11 (antibody, V domains shown, IgG with common trastuzumab LC, cell-free expressed, HIS- and FLAG-tagged; also called Antibody 17) VH: EVQLVESGGGLVQPGGSLRLSCAASGFNIGNNSIHWVRQAPGKGLEWVGDISPIDGFTDYADSVKGRFTISADTSKNTAYLQMNSLRAEDTAVYYCARGSWSWRAGYGYYLDYWGQGTLVTVSS VL: not shown | 1.52 | 0.00186 | 1.22e+06
SRP1848-A06 (antibody, V domains shown, IgG with common trastuzumab LC, cell-free expressed, HIS- and FLAG-tagged; also called Antibody 4) VH: EVQLVESGGGLVQPGGSLRLSCAASGFNIGNSYIHWVRQAPGKGLEWVGGITPIDGNTDYADSVKGRFTISADTSKNTAYLQMNSLRAEDTAVYYCARGAWSWRSGYGYYIDYWGQGTLVTVSS VL: not shown | 3.51 |  | 
SRP1848-D02 (antibody, V domains shown, IgG with common trastuzumab LC, cell-free expressed, HIS- and FLAG-tagged; also called Antibody 24) VH: EVQLVESGGGLVQPGGSLRLSCAASGFNISHNYIHWVRQAPGKGLEWVGGITPQDGYTDYADSVKGRFTISADTSKNTAYLQMNRLRAEDTAVYYCARGAWSWRAGYGYYLDYWGQGTLVTVSS VL: not shown | 2.41 | 0.00205 | 851000
SRP1848-D09 (antibody, V domains shown, IgG with common trastuzumab LC, cell-free expressed, HIS- and FLAG-tagged; also called Antibody 29) VH: EVQLVESGGGLVQPGGSLRLSCAASGFNISNYYIHWVRQAPGKGLEWVGGISPNDGYTDYADSVKGRFTISADTSKNTAYLQMNSLRAEDTAVYYCARGSWSWRHGYGYYLDYWGQGTLVTVSS VL: not shown | 10.1 | 0.0108 | 1.07e+06
SRP1848-B09 (antibody, V domains shown, IgG with common trastuzumab LC, cell-free expressed, HIS- and FLAG-tagged; also called Antibody 15) VH: EVQLVESGGGLVQPGGSLRLSCAAGGFNITNYYIHWVRQAPGKGLEWVGGITPVDGYTDYADRVKGRFTISADTSKNTAYLQMNSLRAEDTAVYYCARGAWSWRSGYGYYMDYWGQGTLVTVSS VL: not shown | 4.26 | 0.00661 | 1.55e+06
SRP1848-A04 (antibody, V domains shown, IgG with common trastuzumab LC, cell-free expressed, HIS- and FLAG-tagged; also called Antibody 3) VH: EVQLVESGGGLVQPGGSLRLSCAASGFNIDQSSIHWVRQAPGKGLEWVGVIYPVDGTTDYADSVKGRFTISADTSKNTAYLQMNSLRAEDTAVYYCARGAWSWRSGYGYYIDYWGQGTLVTVSS VL: not shown | 2.03 | 0.00326 | 1.61e+06
SRP1848-D05 (antibody, V domains shown, IgG with common trastuzumab LC, cell-free expressed, HIS- and FLAG-tagged; also called Antibody 27) VH: EVQLVESGGGLVQPGGSLRLSCAASGFNISISYIHWVRQAPGKGLEWVGGISPIDGYTDYADSVKGRFTISADTSKNTAYLQMNSLRAEDTAVYYCARGSWSWRAGYGYYLDYWGQGTLVTVSS VL: not shown | 2.93 |  | 
SRP1848-C10 (antibody, V domains shown, IgG with common trastuzumab LC, cell-free expressed, HIS- and FLAG-tagged; also called Antibody 23) VH: EVQLVESGGGLVQPGGSLRLSCAASGFNIRTYYIHWVRQAPGKGLEWVGGISPIDGYTDYADSVKGRFTISADTSKNTAYLQMNSLRAEDTAVYYCARGSWSWPAGYGYYLDYWGQGTLVTVSS VL: not shown | 4.03 | 0.00363 | 899000
SRP1848-B03 (antibody, V domains shown, IgG with common trastuzumab LC, cell-free expressed, HIS- and FLAG-tagged; also called Antibody 10) VH: EVQLVESGGGLVQPGGSLRLSCAASGFNISMKYIHWVRQAPGKGLEWVGGITPIDGMTDYADSVKGRFTISADTSKNTAYLQMNSLRAEDTAVYYCARGSWSWPSGYSYYLDYWGQGTLVTVSS VL: not shown | 7.63 | 0.00859 | 1.13e+06
SRP1848-C05 (antibody, V domains shown, IgG with common trastuzumab LC, cell-free expressed, HIS- and FLAG-tagged; also called Antibody 21) VH: EVQLVESGGGLVQPGGSLRLSCAASGFNIRKYSIHWVRQAPGKGLEWVGDIFPIDGINDYADSVKGRFTISADTSKNTAYLQMNSLRAEDTAVYYCARGSWSWKAGYGYYLDYWGQGTLVTVSS VL: not shown | 4.29 | 0.00454 | 1.06e+06
SRP1848-A08 (antibody, V domains shown, IgG with common trastuzumab LC, cell-free expressed, HIS- and FLAG-tagged; also called Antibody 6) VH: EVQLVESGGGLVQPGGSLRLSCAASGSNIRKHSIHWVRQAPGKGLEWVGSIYPNDGTTDYADSVKGRFTISADTSKNTAYLQMNSLRAEDTAVYYCARGSWFWRAGYGYYLDYWGQGTLVTVSS VL: not shown | 2.42 | 0.00119 | 493000
SRP1848-B10 (antibody, V domains shown, IgG with common trastuzumab LC, cell-free expressed, HIS- and FLAG-tagged; also called Antibody 16) VH: EVQLVESGGGLVQPGGSLRLSCAASGFNTTTKSIHWVRQAPGKGLEWVGEIYPRDGITDYADSVKGRFTISADTSKNTAYLQMNSLRAEDTAVYYCARGGWHWRSGYSYYLDYWGQGTLVTVSS VL: not shown | 2.18 |  | 
SRP1848-D07 (antibody, V domains shown, IgG with common trastuzumab LC, cell-free expressed, HIS- and FLAG-tagged; also called Antibody 28) VH: EVQLVESGGGLVQPGGSLRLSCAASGFNISKYYIHWVRQAPGKGLEWVGGISPNDGYTDYADSVKGRFAISADTSKNTAYLQMNSLRAEDTAVYYCARGFWAWRSGYGYYLDYWGQGTLVTVSS VL: not shown | 4.7 | 0.00511 | 1.09e+06

Continued by falling Kd, values first:

Kd [nM] | koff [s⁻¹] | kon [M⁻¹ s⁻¹] | Binder
5.35 | 0.00378 | 706000 | SRP1848-B07 (antibody, V domains shown, IgG with common trastuzumab LC, cell-free expressed, HIS- and FLAG-tagged; also called Antibody 14) VH: EVQLVESGGGLVQPGGSLRLSCAASGFNISRFYIHWVRQAPGKGLEWVGGISPYDGFTDYADSVKGRFTISADTSKNTAYLQMNSLRAEDTAVYYCARGSWSWPAGYGYYQDYWGQGTLVTVSS VL: not shown
3.67 | 0.00416 | 1.13e+06 | SRP1848-B01 (antibody, V domains shown, IgG with common trastuzumab LC, cell-free expressed, HIS- and FLAG-tagged; also called Antibody 9) VH: EVQLVESGGGLVQPGGSLRLSCAASGFNIRNYSIHWVRQAPGKGLEWVGEIYPVDGITDYADSVKGRFTISADTSKNTAYLQMNSLRAEDTAVYYCARGFWSWPSGYSYFLDYWGQGTLVTVSS VL: not shown
3.48 | 0.00173 | 497000 | SRP1848-D04 (antibody, V domains shown, IgG with common trastuzumab LC, cell-free expressed, HIS- and FLAG-tagged; also called Antibody 26) VH: EVQLVESGGGLVQPGGSLRLSCAASGFNISHYSIHWVRQAPGKGLEWVGEIYPRDGITDYADSVKGRFTISADTSKNTAYLQMNSLSAEDTAVYYCARGYWFWRSGYGYYLDYWGQGTLVTVSS VL: not shown
2.74 | 0.0033 | 1.2e+06 | SRP1848-A10 (antibody, V domains shown, IgG with common trastuzumab LC, cell-free expressed, HIS- and FLAG-tagged; also called Antibody 8) VH: EVQLVESGGGLVQPGGSLRLSCAASGFNIRKYSIHWARQAPGKGLEWVGDIFPIDDITDYADSVKGRFTISADTSKNTAYLQMNSLRAEDTAVYYCARGSWSWPSGHSYYLDYWGQGTLVTVSS VL: not shown
1.87 | 0.00155 | 829000 | SRP1848-A01 (antibody, V domains shown, IgG with common trastuzumab LC, cell-free expressed, HIS- and FLAG-tagged; also called Antibody 1) VH: EVQLVESGGGLVQPGGSLRLSCAASGFNITRYSIHWVRQAPGKGLEWVAGILPESGGTSYADSVKGRFTISADTSKNTAYLQMNSLRAEDTAVYYCARHIYPWDWFSNYVLDYWGQGTLVTVSS VL: not shown
1.82 |  |  | SRP1848-A09 (antibody, V domains shown, IgG with common trastuzumab LC, cell-free expressed, HIS- and FLAG-tagged; also called Antibody 7) VH: EVQLVESGGGLVQPGGSLRLSCAASGFNIRKQSIHWVRQAPGKGLEWVGSIFPNDGTTDYADSVKGRFTISADTSKNTAYLQVNSLRAEDTAVYYCARGSWFWRSGYGYFLEYWGQGTLVTVSS VL: not shown
1.5 | 0.00117 | 780000 | SRP1848-B04 (antibody, V domains shown, IgG with common trastuzumab LC, cell-free expressed, HIS- and FLAG-tagged; also called Antibody 11) VH: EVQLVESGGGLVQPGGSLRLSCAASSFNISNHSIHWVRQAPGKGLEWVGEIYPVDGITDYADSVKGRFTISADTSKNTAYLQMNSLRAEDTAVYYCARGRYSWRAGYSYYLDYWGQGTLVTVSS VL: not shown
1.11 | 0.00152 | 1.36e+06 | SRP1848-C03 (antibody, V domains shown, IgG with common trastuzumab LC, cell-free expressed, HIS- and FLAG-tagged; also called Antibody 19) VH: EVQLVESGGGLVQPGGSLRLSCAASGFNIGVYSIHWVRQAPGKGLEWVGEIYPIDGNTDYADSVKGRFTISADTSKNTAYLQMNSLRAEDTAVYYCARGSWAWRSGYSYYLDYWGQGTLVTVSS VL: not shown
0.855 | 0.000866 | 1.01e+06 | SRP1848-A07 (antibody, V domains shown, IgG with common trastuzumab LC, cell-free expressed, HIS- and FLAG-tagged; also called Antibody 5) VH: EVQLVESGGGLVQPGGSLRLSCAASGFNIGYHSIHWVRQAPGKGLEWVGEIFPVDGTTDYADSVKGRFTISADTSKNTAYLHMNSLRAEDTAVYYCARGFWAWRSGYGYYLDYWGQGTLVTVSS VL: not shown
